Assay results from the domain aggregation screens of Martell et al. (2025).

Experiment: soluble fraction after stress (log2 fold change); higher = more stays soluble; pooled small domains, quantitative proteomics
Settings: stress: pH 4
How it was run: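 Pooled custom libraries of small protein domains were subjected to pH 4 and measured by high-throughput quantitative proteomics. The log2 fold change in soluble amount per domain is reported, higher values meaning more remained soluble. This is used as a measure of aggregation propensity.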

First: HMAYVDWYENKQPTHEEAFKKLLGRIHPGAIVLLHSTSKTNGEILDELLTKWEEMGYRFGTLDELTGN
Second: HMDAATDAIKAEVRALLEMANAQGIDTESIMLEAHEQTRNATEQDYYEAAKSALEAAIAGSNRDR
The “soluble fraction (log2)” value of the first is lower: -1.14 for the first, -0.319 for the second.

Going from “HMDADGEPIKLDQIGISHLSFTVADVKSLGEELVAKGVKLAAPMEAFTSPEGRISSIFVYDPDGILLQFDD” to “HMDADRLSPREREMLQFIARGQSNKEIARALELAESTVKIHVQNMLRKLNLSSRVQAAVFAVENGLG”, the “soluble fraction (log2)” value rises from -0.123 to 0.302.

Going from “HMDAGLAEIIRSFEDNLGGFPPAAREDLLGWREIFTDDLILLAIKKAALAGVRKWSYVNGILKVWKNEGVR” to “HMDAHYMEMKGKTGTAFTMLRPAGKIDIEGQIFDAVAEAGFIEKGEAIRVVKYENAQLIVRK”, the “soluble fraction (log2)” value rises from -1.09 to -0.32.

First: HMDAIAYLGSRLKEIRLKSGLSLREIARQLDVSPSFISQIENGKSQPSVATLYAFAKLLNVPVDVLFQPS
Second: HMDAKNNPQVMAQIRAILTAKGLSEDEVKTRLKTKNIDVDKMTDQEIIAQRPAIEAIINEMEQEKKQKMG
The “soluble fraction (log2)” value of the first is lower: -0.455 for the first, 0.142 for the second.

Compared with “HMDALPLIQLEKEIKDFISQGQKINAIKHYRNVMDRDFGTTISLKLAKYTVDALAQNIKVDLTKGYDQ”, “HMDALTLSIDAQGALYWNGQPVSRELAAQRFVEAAAQRPQPELHLRADQNVAYRHVAMTLADASRAGLTR” is higher in “soluble fraction (log2)” value: -0.852 for the first, -0.632 for the second.

Going from “HMDANAYTYKVSEDTDTRTGEKIFLVKVAEKLSRKEYIVVNNYMKSLGSYYSKFKHAFLFKENPTEKL” to “HMDANLGEIFKVYEQEIGALTPFVREEMLDAIDHYPRDWILDAIRESAKSNARNWKYTLAILKRWKAEG”, the “soluble fraction (log2)” value falls from -0.246 to -0.507.

Going from “HMDAPIIRLLNSLVQRAVTTTASDIHIEPFEGETKVRMRIDGVIIDYVTLQRALHQPLIARIKIMSNLD” to “HMDAPKTGSLVVSKAVNYGSWSGFTFRLHGTSDKGNSVDVTATTGSDGKAYFKDIEIGTYTLEEVN”, the “soluble fraction (log2)” value falls from -0.237 to -1.19.

First: HMDAQEAAWARKMMETLPEKQKLSVALRIEEGLSFKEIGEIIGSSEGAARVNYFHGIRRLRELL
Second: HMDAQNLQDQLFGFLKANPTQAYPAQTLADGLRLDDANAFTKVVQALAALERGGKVKVNEEGAFQYDAEK
The “soluble fraction (log2)” value of the first is lower: -0.768 for the first, -0.0669 for the second.

First: HMDARSTHIAAIHVLKSKLQLQDSDYRALLLTLTGQTSSKDLSEHQRRAVRNHMQQLAERMGVVQ
Second: HMDATFKVRVSVPDLNIRSGPGTNYAATGRFTGVGVFTITAVQSGQGSSSGWGKLKSGAGWIALDYAKR
The “soluble fraction (log2)” value of the first is lower: 0.0263 for the first, 0.341 for the second.

Going from “HMDATIGGFKITDSAIYSGVKNNVNAGVRGTYIDKDGQIAFGDSNSYLKYYKDTDGKWKLEVSASSVKF” to “HMDAVDKDGNHMTFKKWSEQLQEAFHALELYDTTRAKQILSELVKFQVDSDITKSLKAIITNIDDMMA”, the “soluble fraction (log2)” value falls from -0.476 to -1.5.

Going from “HMDAYDEVTTLSQMVASGKNTTVAHLKHLKEYHQTDYLRQAVEWLLSNRKNVSFSVDEVMQEVHN” to “HMDAYLPETVQKLLDVMDFDVPYSAAQLMEKLGLKSRASFRKLYLLPALEKNLIAMGVPDKPTSRNQTYIR”, the “soluble fraction (log2)” value rises from -0.434 to 0.169.

Going from “HMDAYSYFIRTYPLVDDPLIGDIRRIFAETHDGNPAGDADVRHILWRLLFERELYPTLDEATADWY” to “HMDDEAVQIMTLHISKGLEFDVVFALGLVSRTPESKEIEELEAEKQRQLYVAMTRAEKWLIVAA”, the “soluble fraction (log2)” value rises from -1.86 to 0.22.

First: HMDDEDLAFLQREFVSYQQAMDYYGLGYKPVVRLSHISGSVYKIGKKVLIRRNIFEEYLRNHV
Second: HMDDFGERLRKLRVAQDLTQQQLGEKLGVVPSTIGKYEKVKDSYPSIEVLIKLSDFFSVSTDYLLKG
The “soluble fraction (log2)” value of the first is higher: -0.666 for the first, -0.905 for the second.

First: HMDDFTEVLLQYLKDHDGYSSIHDKTDAETIYNTFGVSKKTFKKAVGDLYKKRLIVLEEEGIRLLG
Second: HMDDISLEEIKYISSKLETKVNEIEELLVRYYDGETNEAEEKELKEFFAQADVPAHLLAEKRLFMQLASQ
The “soluble fraction (log2)” value of the first is lower: -0.586 for the first, -0.324 for the second.

First: HMDDKVGKVFNYVQEKILTGEWDIGDKITPEISLSKELGVSRSVVREAIKKFVALNILSRTQGGGTYVNNL
Second: HMDDNMNEQWKMILNSIAKKGSVTRQETEKILGIGQTRAHVLLKAMIHAGMIKAVGDGKKRRYVR
The “soluble fraction (log2)” value of the first is lower: -0.621 for the first, ≥ 0.43 for the second.
